Assay [1] concerns the target HRgpA-6H (Porphyromonas gingivalis) (UniProt P28784). Nature of the assay: ELISA on coated HRgpA-6H, OD relative to parental Fab. (In general: An ELISA detects its analyte on a solid surface through an enzyme-linked reagent.)
For assay [2] the target is unchanged. Nature of the assay: ELISA, FASEBA Fab supernatant on coated HRgpA-6H.

Several values for one entry are separate records, joined by “and”; a condition that tells them apart may be missing. Equal values may be shown once.

Sequence of UniProt P28784 (P28784 228-860 limits assumed): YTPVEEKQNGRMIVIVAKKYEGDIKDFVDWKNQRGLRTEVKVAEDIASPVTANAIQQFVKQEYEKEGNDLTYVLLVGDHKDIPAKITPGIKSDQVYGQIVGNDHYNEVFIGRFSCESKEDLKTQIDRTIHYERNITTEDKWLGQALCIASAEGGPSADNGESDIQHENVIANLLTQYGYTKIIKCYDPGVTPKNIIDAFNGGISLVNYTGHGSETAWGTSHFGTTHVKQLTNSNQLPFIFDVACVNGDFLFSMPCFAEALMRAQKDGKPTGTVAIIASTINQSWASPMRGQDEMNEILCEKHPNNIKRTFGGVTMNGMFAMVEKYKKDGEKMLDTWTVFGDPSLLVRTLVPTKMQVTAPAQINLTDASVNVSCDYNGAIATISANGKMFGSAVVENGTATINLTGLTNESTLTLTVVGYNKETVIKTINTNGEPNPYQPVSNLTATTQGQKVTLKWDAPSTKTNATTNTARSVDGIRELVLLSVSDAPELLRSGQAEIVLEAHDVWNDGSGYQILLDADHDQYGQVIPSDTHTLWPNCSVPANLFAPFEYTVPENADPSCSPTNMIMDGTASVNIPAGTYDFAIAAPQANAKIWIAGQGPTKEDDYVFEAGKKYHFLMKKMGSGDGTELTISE

B1: KB001 mouse Fab variant VL Y97Q (Fab, V domains shown)
VH: EVQLKQSGPGLVAPSQSLSITCTVSGFSLSIYSVHWVRQPPGKGLEWLGMIWGGGSSDYNSALKSRLSISKDNSKSQVFLKMNSLQTDDTAMYYCARNGNFYAMDYWGQGTSVTVSS
VL: QIVLTQSPAIMSASLGERVTMTCTASSSVSSSFLHWYQQKPGSSPQLWIYSTSNLASGVPARFSGSGSGTSYSLTISSMEAEDAATYYCHQYHHSPQIYTFGGGTKLEIK
As to B1, the Ratio OD(Variant)/OD(WT) in assay [1] is 0.871 fold. This molecule also came in with an OD450 nm in assay [2] of 0.687.

B2: KB001 mouse Fab variant VL T100I (Fab, V domains shown)
VH: EVQLKQSGPGLVAPSQSLSITCTVSGFSLSIYSVHWVRQPPGKGLEWLGMIWGGGSSDYNSALKSRLSISKDNSKSQVFLKMNSLQTDDTAMYYCARNGNFYAMDYWGQGTSVTVSS
VL: QIVLTQSPAIMSASLGERVTMTCTASSSVSSSFLHWYQQKPGSSPQLWIYSTSNLASGVPARFSGSGSGTSYSLTISSMEAEDAATYYCHQYHHSPYIYIFGGGTKLEIK
For the molecule B2, the Ratio OD(Variant)/OD(WT) in assay [1] came out at 0.942 fold. In assay [2], this molecule came in with an OD450 nm of 0.493.

B3: KB001 mouse Fab variant VL Y97V (Fab, V domains shown)
VH: EVQLKQSGPGLVAPSQSLSITCTVSGFSLSIYSVHWVRQPPGKGLEWLGMIWGGGSSDYNSALKSRLSISKDNSKSQVFLKMNSLQTDDTAMYYCARNGNFYAMDYWGQGTSVTVSS
VL: QIVLTQSPAIMSASLGERVTMTCTASSSVSSSFLHWYQQKPGSSPQLWIYSTSNLASGVPARFSGSGSGTSYSLTISSMEAEDAATYYCHQYHHSPVIYTFGGGTKLEIK
With B3, the Ratio OD(Variant)/OD(WT) in assay [1] was 0.839 fold. The same molecule yielded an OD450 nm in assay [2] of 0.662.

B4: KB001 mouse Fab variant VL I98L (Fab, V domains shown)
VH: EVQLKQSGPGLVAPSQSLSITCTVSGFSLSIYSVHWVRQPPGKGLEWLGMIWGGGSSDYNSALKSRLSISKDNSKSQVFLKMNSLQTDDTAMYYCARNGNFYAMDYWGQGTSVTVSS
VL: QIVLTQSPAIMSASLGERVTMTCTASSSVSSSFLHWYQQKPGSSPQLWIYSTSNLASGVPARFSGSGSGTSYSLTISSMEAEDAATYYCHQYHHSPYLYTFGGGTKLEIK
B4: the Ratio OD(Variant)/OD(WT) in assay [1] is 0.955 fold. This molecule registered an OD450 nm in assay [2] of 0.836.

B5: KB001 mouse Fab variant VL I98V (Fab, V domains shown)
VH: EVQLKQSGPGLVAPSQSLSITCTVSGFSLSIYSVHWVRQPPGKGLEWLGMIWGGGSSDYNSALKSRLSISKDNSKSQVFLKMNSLQTDDTAMYYCARNGNFYAMDYWGQGTSVTVSS
VL: QIVLTQSPAIMSASLGERVTMTCTASSSVSSSFLHWYQQKPGSSPQLWIYSTSNLASGVPARFSGSGSGTSYSLTISSMEAEDAATYYCHQYHHSPYVYTFGGGTKLEIK
With B5, in assay [1], the Ratio OD(Variant)/OD(WT) was 0.951 fold and 0.958 fold and 0.899 fold. The OD450 nm in assay [2] was 0.832 and 0.838 and 0.787.

B6: KB001 mouse Fab variant VL Y97K (Fab, V domains shown)
VH: EVQLKQSGPGLVAPSQSLSITCTVSGFSLSIYSVHWVRQPPGKGLEWLGMIWGGGSSDYNSALKSRLSISKDNSKSQVFLKMNSLQTDDTAMYYCARNGNFYAMDYWGQGTSVTVSS
VL: QIVLTQSPAIMSASLGERVTMTCTASSSVSSSFLHWYQQKPGSSPQLWIYSTSNLASGVPARFSGSGSGTSYSLTISSMEAEDAATYYCHQYHHSPKIYTFGGGTKLEIK
As for B6, in assay [1], the Ratio OD(Variant)/OD(WT) came out at 0.829 fold. Also, the OD450 nm in assay [2] was determined as 0.654.

B7: KB001 mouse Fab variant VL I98R (Fab, V domains shown)
VH: EVQLKQSGPGLVAPSQSLSITCTVSGFSLSIYSVHWVRQPPGKGLEWLGMIWGGGSSDYNSALKSRLSISKDNSKSQVFLKMNSLQTDDTAMYYCARNGNFYAMDYWGQGTSVTVSS
VL: QIVLTQSPAIMSASLGERVTMTCTASSSVSSSFLHWYQQKPGSSPQLWIYSTSNLASGVPARFSGSGSGTSYSLTISSMEAEDAATYYCHQYHHSPYRYTFGGGTKLEIK
B7: the Ratio OD(Variant)/OD(WT) in assay [1] was 0.83 fold and 0.825 fold. Also, the OD450 nm in assay [2] was 0.726 and 0.722.

B8: KB001 mouse Fab variant VL Y97I (Fab, V domains shown)
VH: EVQLKQSGPGLVAPSQSLSITCTVSGFSLSIYSVHWVRQPPGKGLEWLGMIWGGGSSDYNSALKSRLSISKDNSKSQVFLKMNSLQTDDTAMYYCARNGNFYAMDYWGQGTSVTVSS
VL: QIVLTQSPAIMSASLGERVTMTCTASSSVSSSFLHWYQQKPGSSPQLWIYSTSNLASGVPARFSGSGSGTSYSLTISSMEAEDAATYYCHQYHHSPIIYTFGGGTKLEIK
Take B8: the Ratio OD(Variant)/OD(WT) in assay [1] worked out at 0.845 fold. Also, in assay [2], the OD450 nm came to 0.667.

B9: KB001 mouse Fab variant VL I98M (Fab, V domains shown)
VH: EVQLKQSGPGLVAPSQSLSITCTVSGFSLSIYSVHWVRQPPGKGLEWLGMIWGGGSSDYNSALKSRLSISKDNSKSQVFLKMNSLQTDDTAMYYCARNGNFYAMDYWGQGTSVTVSS
VL: QIVLTQSPAIMSASLGERVTMTCTASSSVSSSFLHWYQQKPGSSPQLWIYSTSNLASGVPARFSGSGSGTSYSLTISSMEAEDAATYYCHQYHHSPYMYTFGGGTKLEIK
Take B9: the Ratio OD(Variant)/OD(WT) in assay [1] amounted to 0.833 fold. This molecule also registered an OD450 nm in assay [2] of 0.729.

B10: KB001 mouse Fab variant VL Y97R (Fab, V domains shown)
VH: EVQLKQSGPGLVAPSQSLSITCTVSGFSLSIYSVHWVRQPPGKGLEWLGMIWGGGSSDYNSALKSRLSISKDNSKSQVFLKMNSLQTDDTAMYYCARNGNFYAMDYWGQGTSVTVSS
VL: QIVLTQSPAIMSASLGERVTMTCTASSSVSSSFLHWYQQKPGSSPQLWIYSTSNLASGVPARFSGSGSGTSYSLTISSMEAEDAATYYCHQYHHSPRIYTFGGGTKLEIK
B10: the Ratio OD(Variant)/OD(WT) in assay [1] turned out to be 0.975 fold. In addition, the OD450 nm in assay [2] came out at 0.769.

B11: KB001 mouse Fab variant VL T100P (Fab, V domains shown)
VH: EVQLKQSGPGLVAPSQSLSITCTVSGFSLSIYSVHWVRQPPGKGLEWLGMIWGGGSSDYNSALKSRLSISKDNSKSQVFLKMNSLQTDDTAMYYCARNGNFYAMDYWGQGTSVTVSS
VL: QIVLTQSPAIMSASLGERVTMTCTASSSVSSSFLHWYQQKPGSSPQLWIYSTSNLASGVPARFSGSGSGTSYSLTISSMEAEDAATYYCHQYHHSPYIYPFGGGTKLEIK
With B11, the Ratio OD(Variant)/OD(WT) in assay [1] was 0.879 fold. In assay [2], the OD450 nm came to 0.46.

B12: KB001 mouse Fab variant VL Y97S (Fab, V domains shown)
VH: EVQLKQSGPGLVAPSQSLSITCTVSGFSLSIYSVHWVRQPPGKGLEWLGMIWGGGSSDYNSALKSRLSISKDNSKSQVFLKMNSLQTDDTAMYYCARNGNFYAMDYWGQGTSVTVSS
VL: QIVLTQSPAIMSASLGERVTMTCTASSSVSSSFLHWYQQKPGSSPQLWIYSTSNLASGVPARFSGSGSGTSYSLTISSMEAEDAATYYCHQYHHSPSIYTFGGGTKLEIK
As for B12, the Ratio OD(Variant)/OD(WT) in assay [1] was determined as 0.802 fold. In assay [2], this molecule registered an OD450 nm of 0.633.

B13: KB001 mouse Fab variant VL Y97F (Fab, V domains shown)
VH: EVQLKQSGPGLVAPSQSLSITCTVSGFSLSIYSVHWVRQPPGKGLEWLGMIWGGGSSDYNSALKSRLSISKDNSKSQVFLKMNSLQTDDTAMYYCARNGNFYAMDYWGQGTSVTVSS
VL: QIVLTQSPAIMSASLGERVTMTCTASSSVSSSFLHWYQQKPGSSPQLWIYSTSNLASGVPARFSGSGSGTSYSLTISSMEAEDAATYYCHQYHHSPFIYTFGGGTKLEIK
For the molecule B13, the Ratio OD(Variant)/OD(WT) in assay [1] was 0.951 fold and 0.958 fold. Also, the OD450 nm in assay [2] was 0.75 and 0.756.

B14: KB001 mouse Fab variant VL Y97L (Fab, V domains shown)
VH: EVQLKQSGPGLVAPSQSLSITCTVSGFSLSIYSVHWVRQPPGKGLEWLGMIWGGGSSDYNSALKSRLSISKDNSKSQVFLKMNSLQTDDTAMYYCARNGNFYAMDYWGQGTSVTVSS
VL: QIVLTQSPAIMSASLGERVTMTCTASSSVSSSFLHWYQQKPGSSPQLWIYSTSNLASGVPARFSGSGSGTSYSLTISSMEAEDAATYYCHQYHHSPLIYTFGGGTKLEIK
As for B14, the Ratio OD(Variant)/OD(WT) in assay [1] was determined as 0.937 fold. The molecule also returned an OD450 nm in assay [2] of 0.739.
